# From patent US20050249739A1
# Target: S protein of SARS-CoV (Urbani strain) on virus (SARS-CoV (Urbani strain)) (UniProt P59594)
# Test: cell-based or functional assay
substance,measurement,value
80R IgG1 (antibody),micro-neutralization assay: fold more effective than 80R scFv on a molar basis,20 fold
